Drawing on article doi:10.1101/2021.07.08.451670, this text covers stoichiometry N for one substance.

This experiment deals with P-GltPh (S279E/D405N) (UniProt O59010). Description: cryo-EM structure.

Take “P-GltPh (S279E/D405N) (from UniProt O59010 1-417) (natural protein)”: the stoichiometry N (commonly the number of molecules, sites or subunits per partner or assembly) worked out at 3.
